In publication PMC9205905, “Core and rod structures of a thermophilic cyanobacterial light-harvesting phycobilisome” (Nature Communications, 2022):

Target: the molecule itself
Assay: cryo-EM structure; PC rods dissociated from intact PBSs on the grid by dilution with 10 mM phosphate buffer (phosphate below 0.5 M); single-particle cryo-EM, no symmetry, 4.2 Å

B1: PC monomer (CpcA/CpcB αβ monomer) (complex)
chain 1: not shown
chain 2: MLDAFAKVVAQADARGEFLTNAQFDALSNLVKEGNKRLDAVNRITSNASTIVANAARALFAEQPQLIQPGGNAYTNRRMAACLRDMEIILRYVTYAILAGDSSVLDDRCLNGLRETYQALGTPGSSVAVAIQKMKDAAIAIANDPNGITPGDCSALMSEIAGYFDRAAAAVA
modifications: phycocyanobilin (PCB) at residue 84 (α84) | phycocyanobilin (PCB) at residues 84 and 155 (β84, β155)
In the case of B1, the “stoichiometry N” value is reported as 6.
